The source of these data is US20090104178A1 (published 2009).

What is called Kd is a measure of binding affinity in units of concentration.

The labels stand for the following.
B1: hCCL28 (ligand)
chemokine: SEAILPIASSCCTEVSHHISRRLLERVNMCRIQRADGDCDLAAVILHVKRRRICVSPHNHTVKQWMKVQAAKKNGKGNVCHRKKHHGKRNSNRAHQGKHETYGHKTPY
B2: hCXCL13 (ligand)
chemokine: VLEVYYTSLRCRCVQESSVFIPRRFIDRIQILPRGNGCPRKEIIVWKKNKSIVCVDPQAEWIQRMMEVLRKRSSSTLPVPVFKRKIP
B3: mCXCL14 (ligand)
chain: SKCKCSRKGPKIRYSDVKKLEMKPKYPHCEEKMVIVTTKSMSRYRGQEHCLHPKLQSTKRFIKWYNAWNEKRRVYEE
B4: hCXCL14 (ligand)
chemokine: SKCKCSRKGPKIRYSDVKKLEMKPKYPHCEEKMVIITTKSVSRYRGQEHCLHPKLQSTKRFIKWYNAWNEKRRVYEE
B5: mCCL25 (ligand)
chain: QGAFEDCCLGYQHRIKWNVLRHARNYHQQEVSGSCNLRAVRFYFRQKVVCGNPEDMNVKRAMRILTARKRLVHWKSASDSQTERKKSNHMKSKVENPNSTSVRSATLGHPRMVMMPRKTNN
B6: mCCL27 (ligand)
chain: LPLPSSTSCCTQLYRQPLPSRLLRRIVHMELQEADGDCHLQAVVLHLARRSVCVHPQNRSLARWLERQGKRLQGTVPSLNLVLQKKMYSHPQQQN

For the experiment, the target named is Purified recombinant EV CrmD protein (ectromelia virus).
Regarding B1, the equilibrium dissociation constant (Kd) is 2.8 nM.
In the case of B2 it was 7.4 nM; in that of B3, 3.2 nM.
In the case of B4 it was 7.1 nM.
In the case of B5 it was 3.2 nM; in that of B6, 8.5 nM.
